Assay results: patent publication US20240116985A1 (published 2024)
Starred links: 1 amine or outer side, 2 acyl side, 3 side chain; linkers in the order of their positions; H or OH if unused. Positions of bridges follow the written chain, without caps; N, C: chain ends. Non-standard residues stand in square brackets, D forms with d. Primed or numbered codes have the meaning given here. *: point of attachment. PyrS2″ = (S)-3-amino-1-((pent-4-en-1-yloxy)carbonyl)pyrrolidine-3-carboxylic acid (stapling residue), C=CCCCOC(=O)N1CC[C@@](N[*:1])(C(=O)[*:2])C1; (bismethoxyethylamine)GlnR = [bismethoxyethylamine]GlnR, N5,N5-bis(2-methoxyethyl)-L-glutamine, COCCN(CCOC)C(=O)CC[C@H](N[*:1])C(=O)[*:2]; B5(4) = 2,2-bis(4-pentenyl)glycine = 2-amino-2-(pent-4-en-1-yl)hept-6-enoic acid (stitching residue), C=CCCCC(CCCC=C)(N[*:1])C(=O)[*:2]; (AcPpz)GlnR = [AcPpz]GlnR, (S)-5-(4-acetylpiperazin-1-yl)-2-amino-5-oxopentanoic acid, CC(=O)N1CCN(C(=O)CC[C@H](N[*:1])C(=O)[*:2])CC1; (4Pippip)GlnR″ = (S)-5-([1,4'-bipiperidin]-1'-yl)-2-amino-5-oxopentanoic acid, O=C(CC[C@H](N[*:1])C(=O)[*:2])N1CCC(N2CCCCC2)CC1; (AcPpz)GlnR″ = (S)-5-(4-acetylpiperazin-1-yl)-2-amino-5-oxopentanoic acid, CC(=O)N1CCN(C(=O)CC[C@H](N[*:1])C(=O)[*:2])CC1; (Morph)GlnR″ = [Morph]GlnR, (S)-2-amino-5-morpholino-5-oxopentanoic acid, O=C(CC[C@H](N[*:1])C(=O)[*:2])N1CCOCC1; 5hexenyl = N-terminal hex-5-enoic acid (acyl cap), C=CCCCC(=O)*; Phe(3-COOH) = N[C@@H](Cc1cccc(C(=O)O)c1)C(=O)O; Phe(2-CF3) = N[C@@H](Cc1ccccc1C(F)(F)F)C(=O)O; dαMeGly(allyl) = C=CC[C@@](C)(N)C(=O)O; Bta = N[C@@H](Cc1csc2ccccc12)C(=O)O; αAllylPro = C=CC[C@@]1(C(=O)O)CCCN1; tBuAla = CC(C)(C)C[C@H](N)C(=O)O; 3Thi = N[C@@H](Cc1ccsc1)C(=O)O; AllylGly = C=CC[C@H](N)C(=O)O; R5 = C=CCCC[C@@](C)(N)C(=O)O; Nle = CCCC[C@H](N)C(=O)O; Abu = CC[C@H](N)C(=O)O; Aib = CC(C)(N)C(=O)O

T1: B-cat-Halo (beta-catenin HaloTag construct expressed in HEK293 cells) (UniProt P35222 1-781)
T1 sequence (looked up): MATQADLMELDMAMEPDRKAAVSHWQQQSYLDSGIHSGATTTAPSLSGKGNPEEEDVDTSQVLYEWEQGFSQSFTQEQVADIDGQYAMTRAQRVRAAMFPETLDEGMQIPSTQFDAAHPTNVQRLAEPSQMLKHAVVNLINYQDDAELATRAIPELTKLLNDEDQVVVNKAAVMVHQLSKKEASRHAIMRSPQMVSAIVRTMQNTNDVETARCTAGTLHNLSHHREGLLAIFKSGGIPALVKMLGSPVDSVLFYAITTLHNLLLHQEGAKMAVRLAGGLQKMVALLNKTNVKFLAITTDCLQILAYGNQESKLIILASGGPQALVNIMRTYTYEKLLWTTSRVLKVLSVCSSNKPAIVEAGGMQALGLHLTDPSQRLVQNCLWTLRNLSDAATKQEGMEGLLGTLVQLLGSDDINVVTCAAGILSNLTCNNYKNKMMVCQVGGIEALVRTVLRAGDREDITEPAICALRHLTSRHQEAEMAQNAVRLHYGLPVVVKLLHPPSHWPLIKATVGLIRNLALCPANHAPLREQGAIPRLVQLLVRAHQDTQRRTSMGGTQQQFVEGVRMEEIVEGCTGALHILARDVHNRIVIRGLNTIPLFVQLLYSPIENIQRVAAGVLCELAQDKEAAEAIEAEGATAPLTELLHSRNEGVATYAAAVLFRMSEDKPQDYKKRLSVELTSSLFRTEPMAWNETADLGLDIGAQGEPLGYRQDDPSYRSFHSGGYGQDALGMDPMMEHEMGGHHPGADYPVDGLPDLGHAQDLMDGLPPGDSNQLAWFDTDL

T2: B-cat-Halo (beta-catenin HaloTag fusion expressed in HEK293 cells) (UniProt P35222 1-781)
T2 sequence (looked up): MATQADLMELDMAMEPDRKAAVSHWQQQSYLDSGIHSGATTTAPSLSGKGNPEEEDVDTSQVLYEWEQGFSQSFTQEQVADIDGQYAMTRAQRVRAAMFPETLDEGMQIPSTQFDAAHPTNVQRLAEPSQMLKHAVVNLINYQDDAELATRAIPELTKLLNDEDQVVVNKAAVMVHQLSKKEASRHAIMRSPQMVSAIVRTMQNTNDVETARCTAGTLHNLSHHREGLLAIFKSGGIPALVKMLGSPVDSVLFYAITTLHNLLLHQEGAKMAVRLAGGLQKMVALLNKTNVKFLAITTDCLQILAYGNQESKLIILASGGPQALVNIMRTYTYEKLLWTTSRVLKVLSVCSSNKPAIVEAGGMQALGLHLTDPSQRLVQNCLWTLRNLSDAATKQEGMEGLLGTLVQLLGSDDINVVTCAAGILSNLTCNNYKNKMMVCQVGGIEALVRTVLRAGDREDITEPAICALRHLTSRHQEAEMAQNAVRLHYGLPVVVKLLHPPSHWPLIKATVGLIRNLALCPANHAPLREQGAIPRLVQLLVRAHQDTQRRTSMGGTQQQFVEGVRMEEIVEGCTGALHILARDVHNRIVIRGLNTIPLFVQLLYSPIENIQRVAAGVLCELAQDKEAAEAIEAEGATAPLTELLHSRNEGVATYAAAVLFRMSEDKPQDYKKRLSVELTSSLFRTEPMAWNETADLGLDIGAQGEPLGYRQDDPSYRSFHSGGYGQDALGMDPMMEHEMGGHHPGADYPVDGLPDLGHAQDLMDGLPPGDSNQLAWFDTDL


The binders below were run against T1, B-cat-Halo (beta-catenin HaloTag …) (assay: cell-based or functional assay).

Binder | NanoBRET Abs IC50 (uM); Bcat-Halo / TCF4-Luc in HEK293 cells [µM]
5hexenyl-[αAllylPro]D[AllylGly][B5(4)]D[Phe(3-COOH)]AAFL[PyrS2″][Phe(2-CF3)][Bta]Q-NH2 (staple (positions not given here); not fully specified (bridges); printed as 5hexenyl-PL3-Asp-AllylGly-B5-Asp-3COOHF-Ala-Ala-Phe-Leu-PyrS2-2F3MeF-BztA-Gln-NH2; also: staple C=C reduced to CH2-CH2, staple partners not given here) [I-2529] | 33.2
Ac-[αAllylPro]D[tBuAla][B5(4)]D[Phe(3-COOH)]AAFL[PyrS2″][Phe(2-CF3)][Bta][Me2Gln]-NH2 (staple 1-4, 4-11) [I-2532] | 4.5

What follows are binders tested against T2, B-cat-Halo (beta-catenin HaloTag fusion …) (assay: cell-based or functional assay).

Binder | NanoBRET Abs IC50 [µM]
Ac-[αAllylPro]D[tBuAla][B5(4)]D[Phe(3-COOH)][Aib]AF[Nle][PyrS2″][3Thi][Bta][(Morph)GlnR″]-NH2 (staple 1-4, 4-11) [I-2553] | 8.2
Ac-[αAllylPro]D[tBuAla][B5(4)]D[Phe(3-COOH)][Aib]AF[Nle][PyrS2″][3Thi][Bta][(bismethoxyethylamine)GlnR]-NH2 (staple 1-4, 4-11) [I-2554] | 3.3
Ac-[αAllylPro]D[tBuAla][B5(4)]D[Phe(3-COOH)][Aib]AF[Nle][PyrS2″][3Thi][Bta][(4Pippip)GlnR]-NH2 (staple 1-4, 4-11) [I-2555] | 22.1
Ac-[αAllylPro]D[tBuAla][B5(4)]D[Phe(3-COOH)][Aib]AF[Nle][PyrS2″][3Thi][Bta][(AcPpz)GlnR]-NH2 (staple 1-4, 4-11) [I-2556] | 7
Ac-[αAllylPro]D[tBuAla][B5(4)]D[Phe(3-COOH)][Aib]AF[Nle][PyrS2″][3Thi][Bta][(4F3CPip)GlnR]-NH2 (staple 1-4, 4-11) [I-2557] | 19.6
Ac-[αAllylPro]D[tBuAla][B5(4)]D[Phe(3-COOH)][Aib]AF[Abu][PyrS2″][3Thi][Bta][(Morph)GlnR″]-NH2 (staple 1-4, 4-11) [I-2558] | 14.7

More lines, now with the values ahead:

NanoBRET Abs IC50 [µM] | Binder
3.8 | Ac-[αAllylPro]D[tBuAla][B5(4)]D[Phe(3-COOH)][Aib]AF[Abu][PyrS2″][3Thi][Bta][(bismethoxyethylamine)GlnR]-NH2 (staple 1-4, 4-11) [I-2559]
19.3 | Ac-[αAllylPro]D[tBuAla][B5(4)]D[Phe(3-COOH)][Aib]AF[Abu][PyrS2″][3Thi][Bta][(4Pippip)GlnR″]-NH2 (staple 1-4, 4-11) [I-2560]
7.2 | Ac-[αAllylPro]D[tBuAla][B5(4)]D[Phe(3-COOH)][Aib]AF[Abu][PyrS2″][3Thi][Bta][(AcPpz)GlnR″]-NH2 (staple 1-4, 4-11) [I-2561]
17 | Ac-[dαMeGly(allyl)]D[tBuAla][B5(4)]D[Phe(3-COOH)]AAFL[PyrS2″][Phe(2-CF3)][Bta]Q-NH2 (staple 1-4, 4-11) [I-2563]
21 | Ac-[R5]D[tBuAla][B5(4)]D[Phe(3-COOH)]AAFL[PyrS2″][Phe(2-CF3)][Bta]Q-NH2 (staple 1-4, 4-11; not fully specified; printed as Ac-R5-Asp-Npg-B5-Asp-3COOHF-Ala-Ala-Phe-Leu-PyrS2-2F3MeF-BztA-Gln-NH2) [I-2565]
